Assay [1] concerns the target T1, human IL-17F homodimer (human, UniProt Q96PD4 31-163).
T1 sequence (looked up): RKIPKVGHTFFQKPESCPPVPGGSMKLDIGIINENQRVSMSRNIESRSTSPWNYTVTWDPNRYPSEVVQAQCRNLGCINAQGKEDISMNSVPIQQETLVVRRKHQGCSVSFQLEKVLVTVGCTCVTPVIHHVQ
Briefly: cell-based or functional assay.

The target in assay [2] is T2, cynomolgus IL-17F homodimer, His-tagged (cynomolgus, UniProt G7P4V0 31-163).
T2 sequence: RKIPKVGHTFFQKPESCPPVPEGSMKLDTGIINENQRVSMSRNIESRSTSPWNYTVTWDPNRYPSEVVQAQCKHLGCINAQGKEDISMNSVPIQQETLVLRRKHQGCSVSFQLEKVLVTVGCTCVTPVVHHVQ
Briefly: cell-based or functional assay.

B1: 43G6 antibody (antibody, V domains shown)
VH: EVQLVESGGGLVQPGGSLRLSCAASGFTFSSYSMNWVRQAPGKGLEWVSYISSGSSTIYYADSVKGRFTISRDNAKNSLYLQMNSLRDEDTAVYYCAREGYVSGTYYNYYYGMDVWGQGTTVTVSS
VL: EIVLTQSPATLSLSPGERATLSCRASQSVSSYLAWYQQKPGQAPRLLIYDAPNRATGIPARFSGSGSGTDFTLTISSLEPEDFAVYYCQQRSNWSLTFGGGTKVEIK
Take B1: the “IC50 (nM), IL-6 secretion by MEF cells stimulated with IL-17F (5 ng/ml) and mTNF-α” value (from here on “IC50 (nM), IL-6 secretion”) is 1.1 nM in assay [1] and 8.4 nM in assay [2].

B2: 22F8 antibody (antibody, V domains shown)
VH: EVQLLESGGGLVQPGGSLRLSCAASGFTFSSYAMNWVRQAPGKGLEWVSTISGRGGSIYYADSVKGRFTISRDNSKNTLYLQMNSLRAEDTAVYYCAKEEATWDFDYWGQGTTVTVSS
VL: EIVLTQSPATLSLSPGERATLSCRASQSVSSFLAWFQQKPGQAPRLLIYDASNRATGIPARFSGSGSGTDFTLTISSLEPEDFAVYYCQQRSNWPPTFGQGTKVEIK
Take B2: the “IC50 (nM), IL-6 secretion” value in assay [1] stood at 2 nM; in assay [2] it was 10 nM.

B3: 2E12 antibody (antibody, V domains shown)
VH: EVQLVESGGGLVQRGGSLRLSCAASGFTFSSYSMNWVRQAPGKGLEWISYISSSSSAIYYADSVKGRFTISRDNAKNSLYLQMNSLRDEDTAVYYCAREGYASGRYYNYYYGMDVWGQGTTVTVSS
VL: EIVLTQSPATLSLSPGERATLSCRASQSVSSYLAWYQQKPGQAPRLLIYDASNRATGIPARFSVSGSGTDFTLTISSLEPEDFAVYYCQQRSSWSLTFGGGTKVEIK
For the molecule B3, the “IC50 (nM), IL-6 secretion” value turned out to be 5.9 nM in assay [1] and 26 nM in assay [2].

B4: 21B10 antibody (antibody, V domains shown)
VH: EVQLVESGGGLVQPGGSLRLSCAASGFTFSSYSMNWVRQAPGKGLEWVSYISGGSSTIYYADSVKGRFTISRDNAKNSLYLQMNSLRDEDTAVYYCAREGYVSGTYYNYYYGMDVWGQGTTVTVSS
VL: EIVLTQSPATLSLSPGERATLSCRASQSVSSYLAWYQQKPGQAPRLLIYDAPNRATGIPARFSGSGSGTDFTLTISSLEPEDFAVYYCQQRSNWSLTFGGGTKVEIK
Consider B4, for which the “IC50 (nM), IL-6 secretion” value in assay [1] turned out to be 2 nM; in assay [2], 8.7 nM.

B5: 5D3 antibody (antibody, V domains shown)
VH: EVQLVESGGGLVQPGRSLRLSCAASGFTFDDYAMHWVRQAPGKGLEWVSGISWNSGSRGYADSVKGRFTISRDNAKNSLYLQMNSLRAEDTALYYCAKDMVYALDVWGQGTTVTVSS
VL: EIVLTQSPGTLSLSPGERATLSCRASQSFSGSYLAWYQQKPGQAPRLLIYDTSSRATGIPDRFSGSGSGTDFTLTISRLEPEDFAVYYCQQYGTWTFGQGTKVEIK
Consider B5, for which the “IC50 (nM), IL-6 secretion” value was found to be 0.5 nM in assay [1] and 12 nM in assay [2].

B6: 41B10 antibody (antibody, V domains shown)
VH: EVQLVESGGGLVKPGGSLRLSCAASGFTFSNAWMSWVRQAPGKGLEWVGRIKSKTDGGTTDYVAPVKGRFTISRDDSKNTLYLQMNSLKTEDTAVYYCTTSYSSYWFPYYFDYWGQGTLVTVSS
VL: DIQMTQSPSSLSASVGDRVTITCRASQGISSWLAWYQQKPEKAPKSLIYAASSLQSGVPSRFSGSGSGTDFTLTISSLQPEDFATYYCQQYNSYPITFGQGTRLEIK
Turning to B6, in assay [2], the “IC50 (nM), IL-6 secretion” value was 18 nM.

B7: 1F1 antibody (antibody, V domains shown)
VH: EVQLLESGGGLVQPGGSLRLSCAASGFTFSSYVMSWVRQVPGKGLEWVSAISGRGGNTFYADSVKGRFTISRDNSKNTLYLQMDSLRAEDTAVYYCAKDDRRIAAGSFDYWGQGTTVTVSS
VL: AIQLTQSPSSLSASVGDRVTITCRASQGISSALAWYQQKPGKAPKLLIYDVSSLESGVPSRFSGSGSGTDFTLTISSLQPEDFATYYCQQFNSYPLTFGGGTKVEIK
Take B7: the “IC50 (nM), IL-6 secretion” value came out at 1.1 nM in assay [1] and 11 nM in assay [2].

B8: 11C5 antibody (antibody, V domains shown)
VH: QVQLVQSGAEVKKPGASVKVSCKASGYTFTIYYLHWVRQAPGQGLEWMGIINPSGGRTNYAQKFQGRVTMTRDPSTNTVYMELSSLTSEDAAVYYCARGEFSSGWLDYWGQGTTVTVSS
VL: DIQMTQSPSSVSASVGDRVTITCRASQGISSWLAWYQHKPGKAPKLLIYAASSLQSGVPSRFSGSGSGTDFTLTISSLQPEDFATYYCQQANSFPLTFGGGTKVEIK
On to B8, for which the figures for the “IC50 (nM), IL-6 secretion” value in assay [1] and in assay [2] were 0.4 nM and 2.9 nM, respectively.

B9: 28B11 antibody (antibody, V domains shown)
VH: QVQLVESGGGLVKPGGSLRLSCAASGFTFSNYYMTWIRQAPGKGLEWISYISSTGGNIYYADSVKGRFTISRDNAQNSLYLQMNSLRAEDTAVYYCARDGGVIISTAMFDYWGQGTTVTVSS
VL: AIQLTQSPSSLSASVGDRVTITCRASQGISSALAWYQQKPGKAPKLLIYDASSLESGVPSRLSGSGSGTDFTLTISSLQPEDFATYYCQQFNSYPLTFGGGTKVEIK
In the case of B9, the “IC50 (nM), IL-6 secretion” value in assay [1] turned out to be 1.2 nM; in assay [2] it was 6.3 nM.

B10: 5E12 antibody (antibody, V domains shown)
VH: QVQLVQSGGGLVQPGRSLRLSCAASGFTFDDYAMHWVRQAPGKGLEWVSGISWNSGTIGYADSVKGRFTISRDNAKNSLYLQMNSLRAEDTALYYCAKELYISDWDSYSYGMDVWGQGTTVTVSS
VL: not shown
B10: the “IC50 (nM), IL-6 secretion” value in assay [2] is 22 nM.

Source of the values: patent US20150132314A1 (NOVIMMUNE S A, published 2015).
